T1: human HER4 recombinant extracellular domain protein (human, UniProt Q15303 26-651)
T1 construct: extracellular domain
T1 sequence (looked up): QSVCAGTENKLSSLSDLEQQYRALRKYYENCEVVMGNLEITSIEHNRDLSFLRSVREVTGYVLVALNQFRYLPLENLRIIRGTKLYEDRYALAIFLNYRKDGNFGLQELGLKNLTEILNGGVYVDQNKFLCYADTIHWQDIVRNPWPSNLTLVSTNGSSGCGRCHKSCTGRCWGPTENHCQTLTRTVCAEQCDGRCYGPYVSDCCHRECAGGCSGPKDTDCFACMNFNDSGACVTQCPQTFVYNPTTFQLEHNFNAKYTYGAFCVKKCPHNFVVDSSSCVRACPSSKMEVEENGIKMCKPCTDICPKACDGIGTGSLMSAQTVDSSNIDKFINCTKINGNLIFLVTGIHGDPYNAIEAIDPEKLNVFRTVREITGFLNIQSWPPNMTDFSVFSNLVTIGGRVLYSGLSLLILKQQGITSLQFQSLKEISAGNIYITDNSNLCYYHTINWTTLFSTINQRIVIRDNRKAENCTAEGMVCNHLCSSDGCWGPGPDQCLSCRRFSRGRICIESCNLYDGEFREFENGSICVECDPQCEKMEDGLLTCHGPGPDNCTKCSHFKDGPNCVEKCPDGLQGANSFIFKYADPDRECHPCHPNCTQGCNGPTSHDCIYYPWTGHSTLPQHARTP

T2: human FcγRIIb (human, UniProt P31994 43-217)
T2 construct: also called FcgRIIb
T2 sequence (looked up): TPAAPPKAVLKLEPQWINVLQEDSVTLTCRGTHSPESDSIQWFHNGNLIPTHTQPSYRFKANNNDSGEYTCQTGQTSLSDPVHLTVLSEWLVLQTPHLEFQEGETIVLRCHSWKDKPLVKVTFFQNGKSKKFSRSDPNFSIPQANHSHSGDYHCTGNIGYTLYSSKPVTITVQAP

T3: human FcγRIIA (human, UniProt P12318 36-218)
T3 construct: also called FcgRIIa
T3 sequence (looked up): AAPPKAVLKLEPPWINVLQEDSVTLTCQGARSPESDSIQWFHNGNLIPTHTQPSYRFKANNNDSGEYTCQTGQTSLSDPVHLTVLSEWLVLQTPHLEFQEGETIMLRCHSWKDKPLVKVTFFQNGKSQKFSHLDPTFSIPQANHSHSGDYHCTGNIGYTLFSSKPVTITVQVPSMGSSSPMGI

B1: Bs2Ab-39SH (bispecific antibody, human IgG1, kappa)
heavy: not shown
light: DIVMTQTPLSLSVTPGQPASISCKSSQSVFFRSNNKNILAWYLQKPGQPPQLLIYWASSRESGVPDRFSGSGSGTDFTLKISRVEAEDVGVYYCQQYFGSPFTFGPGTKVDIKRTVAAPSVFIFPPSDEQLKSGTASVVCLLNNFYPREAKVQWKVDNALQSGNSQESVTEQDSKDSTYSLSSTLTLSKADYEKHKVYACEVTHQGLSSPVTKSFNRGEC
B2: Bs2Ab-39SH_aFuc (bispecific antibody, human IgG1, kappa)
heavy: not shown
light: B1 light
notes: also called afucosylated Bs2Ab-39SH; homogenously afucosylated Bs2Ab-39SH
B3: Bs4Ab-39SH (bispecific antibody)
heavy: not shown
light: B1 light
B4: Bs4Ab-39SH_aFuc (bispecific antibody)
heavy: not shown
light: B1 light
notes: also called afucosylated Bs4Ab-39SH; homogenously afucosylated Bs4Ab-39SH
B5: Bs3Ab-39SH (bispecific antibody, human IgG1, kappa)
heavy: not shown
light: B1 light
B6: Bs2-4T (bispecific antibody, name in EU numbering)
heavy: not shown
light: B1 light
modifications: tubulysin 1508 (Compound T32) on engineered Cys 239 and Cys 442 (EU index), thiol-maleimide linkage
notes: Antibody-drug conjugate, DAR about 4; also called Bs2Ab-4T; Bs2Ab-39SH-(FCC) construct conjugated to 4 tubulysins
B7: Bs4-4T (bispecific antibody)
heavy: not shown
light: B1 light
modifications: tubulysin 1508 (Compound T32) on engineered Cys 239 and Cys 442 (EU index), thiol-maleimide linkage
notes: Antibody-drug conjugate, DAR about 4; also called Bs4Ab-4T; Bs4Ab-39SH-(FCC) conjugated to 4 tubulysins

These binders were tested against C1q (Homo sapiens (Human), UniProt P02745 23-245; P02746 28-253; P02747 29-245) (assay: BIAcore per table head; method for C1q not described).
Sequence of C1q (P02745 23-245 limits assumed, chain 1 of 3): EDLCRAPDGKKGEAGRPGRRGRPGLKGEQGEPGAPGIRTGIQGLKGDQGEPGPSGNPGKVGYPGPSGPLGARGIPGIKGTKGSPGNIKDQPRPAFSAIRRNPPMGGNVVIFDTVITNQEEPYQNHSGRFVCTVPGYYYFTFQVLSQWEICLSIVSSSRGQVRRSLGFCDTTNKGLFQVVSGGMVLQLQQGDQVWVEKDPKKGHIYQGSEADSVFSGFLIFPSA
Sequence of C1q (P02746 28-253 limits assumed, chain 2 of 3): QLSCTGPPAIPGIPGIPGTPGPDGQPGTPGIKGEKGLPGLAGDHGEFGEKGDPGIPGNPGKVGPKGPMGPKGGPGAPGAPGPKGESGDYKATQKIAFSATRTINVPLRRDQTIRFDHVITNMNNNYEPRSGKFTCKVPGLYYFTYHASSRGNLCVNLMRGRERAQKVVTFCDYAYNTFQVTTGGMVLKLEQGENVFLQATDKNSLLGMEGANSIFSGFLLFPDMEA
Sequence of C1q (P02747 29-245 limits assumed, chain 3 of 3): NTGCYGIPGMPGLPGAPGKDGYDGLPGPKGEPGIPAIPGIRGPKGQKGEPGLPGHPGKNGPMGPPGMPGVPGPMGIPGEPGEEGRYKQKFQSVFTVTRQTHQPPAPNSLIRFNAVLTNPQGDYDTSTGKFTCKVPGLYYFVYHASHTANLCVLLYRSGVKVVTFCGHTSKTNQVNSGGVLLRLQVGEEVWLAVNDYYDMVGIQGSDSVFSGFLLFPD
With B1 the Kd was 75.6 nM. For B2, the Kd was 130 nM. For B3, the Kd was 88.6 nM. With B4 the Kd was 446 nM.

What follows are binders tested against T4, human EGFR recombinant extracellular domain protein (human, UniProt P00533 25-645) (assay: capture ELISA as in Example 1).
T4 construct: extracellular domain
Experimental: (§1) Antibody to be tested was prepared by diluting in a stepwise 1:3 serial dilution ranging from 50 nM down to 0.28 pM and then added to the wells in duplicate. After one hour of incubation, plates were washed, and goat anti-human IgG Fab HRP-conjugated secondary antibody was added to each well and the plates were incubated for 1 hour. The plates were washed and TMB substrate was added and incubated for 5-20 min to allow color development. The stop solution was added to the wells at the end of reaction and the plates were read at 450 nm. Binding signal (absorbance at 450 nm) was plotted against antibody concentration using Prism software.
B1: no binding. B3: no binding. B5: no binding. B6: no binding. B7: no binding.

These binders were tested against T1, human HER4 recombinant extracellular … (assay: capture ELISA as in Example 1).
Experimental: as §1
B1: no binding. B3: no binding. B5: no binding. B6: no binding. B7: no binding.

These binders were tested against T5, human HER3 recombinant extracellular domain protein (human, UniProt P21860 20-643) (assay: capture ELISA as in Example 1).
T5 construct: extracellular domain
Experimental: as §1
B1: no binding. B3: no binding. B5: no binding. B6: no binding. B7: no binding.

The binders below were run against T2, human FcγRIIb (assay: SPR, antibody immobilised, receptor injected, steady-state fit (table head: BIAcore; paragraph 688: ProteOn XPR36)).
Experimental: (§2) The binding constants (KD) for the binding of anti-HER2 bispecific antibodies to human FcγRs were measured on a ProteOn XPR36 instrument. Briefly, the bispecific antibodies were immobilized at high density on a GLC sensor chip using a standard amino coupling chemistry as outlined by the instrument manufacturer. The final surface density of IgG measured approximately 3000 RU. A reference flow cell was also prepared on this sensor chip using the identical immobilization protocol minus protein. […] Each concentration of FcγR was injected over both the bispecific antibody and reference cell surfaces at a flow rate of 25 μL/min for 8 min, during which binding data were collected. Between injections, the surfaces were regenerated (i.e., bound FcγR was removed) with a 60-sec pulse of 5 mM HCl. Several buffer injections were also interspersed throughout the injection series. Later, one of these buffer injections along with the reference cell data was used to correct the binding data for any injection artifacts (e.g., nonspecific binding) through a technique commonly referred to as “double-referencing” (Myszka, 1999). After all binding data were collected, individual data sets were averaged for binding (Response at equilibrium [Req]) at each concentration (C), and then fit to a 1:1 binding isotherm (Req vs. C) plot.
Work on B1 yielded a Kd of 2750 nM. B2 showed a Kd of 2400 nM. With B3 the Kd was 2790 nM. B4 was tested, and the Kd was 2560 nM.

Each binder was assayed against T6, human FcγRIIIA-158F (human, UniProt P08637 17-208) in the same assay as above.
T6 construct: also called FcgRIIIa (158F)
T6 sequence (P08637 17-208 limits assumed): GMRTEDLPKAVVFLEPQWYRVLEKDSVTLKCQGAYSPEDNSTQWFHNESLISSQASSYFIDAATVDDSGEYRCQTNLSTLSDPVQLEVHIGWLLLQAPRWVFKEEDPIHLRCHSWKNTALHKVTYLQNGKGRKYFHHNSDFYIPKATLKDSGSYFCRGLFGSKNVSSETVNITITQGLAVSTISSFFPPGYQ
Experimental: as §2
Binder B1 has a Kd of 1990 nM. B2 gave a Kd of 216 nM. For B3, the Kd was 1780 nM. In the case of B4, the Kd is reported as 223 nM.

Each binder was assayed against T3, human FcγRIIA in the same assay as above.
Experimental: as §2
B1 gave a Kd of 1300 nM. Binder B2 has a Kd of 1250 nM. Binder B3 has a Kd of 1190 nM. B4 showed a Kd of 1260 nM.

The binders below were run against T7, human FcγRI (human, UniProt P12314 16-288) in the same assay as above.
T7 construct: also called FcgRI
T7 sequence (P12314 16-288 limits assumed): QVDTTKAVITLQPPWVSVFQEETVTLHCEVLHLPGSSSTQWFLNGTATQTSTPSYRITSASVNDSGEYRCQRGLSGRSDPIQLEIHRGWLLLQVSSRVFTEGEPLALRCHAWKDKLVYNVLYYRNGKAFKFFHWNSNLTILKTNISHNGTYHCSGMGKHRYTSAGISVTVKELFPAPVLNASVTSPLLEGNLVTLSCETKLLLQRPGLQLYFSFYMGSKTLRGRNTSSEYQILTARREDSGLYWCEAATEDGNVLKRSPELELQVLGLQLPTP
Experimental: as §2
With B1 the Kd was 7 nM. B2 showed a Kd of 0.98 nM. In the case of B3, the Kd is reported as 13 nM. Binder B4 has a Kd of 0.98 nM.

What follows are binders tested against T8, human FcγRIIIA-158V (human, UniProt P08637 17-208) in the same assay as above.
T8 construct: also called FcgRIIIa (158V); hFcgRIIIA-158V
T8 sequence (P08637 17-208 F176V limits assumed): as the sequence (P08637 17-208 limits assumed) above, with F160V counted along it
Experimental: as §2
B2 was tested, and the Kd was 40 nM. For B4, the Kd was 45 nM.
